# Test results reported in patent US20140087995A1 (published 2014).
# Positions count from the first letter of the chain named. Numbered stars: 1 amine (or outer) side, 2 acyl side, 3 side chain; on linkers, the order of the positions; unused ones are H or OH. Bridge positions count the residues as written; N and C are the ends. Side chains are listed from the residue outwards. Ends that are not written are not given here. * marks the point of attachment. C20 diacid = O=C(O)CCCCCCCCCCCCCCCCCCC(=O)*; γGlu = O=C(O)[C@H](CCC(=O)[*:2])N[*:1]
# T1: human amylin receptor (amylin 3(a) receptor: human calcitonin receptor plus RAMP-3) (human, UniProt P30988 25-474; O60896 24-148, limits assumed)
# T1 sequence (looked up) 1: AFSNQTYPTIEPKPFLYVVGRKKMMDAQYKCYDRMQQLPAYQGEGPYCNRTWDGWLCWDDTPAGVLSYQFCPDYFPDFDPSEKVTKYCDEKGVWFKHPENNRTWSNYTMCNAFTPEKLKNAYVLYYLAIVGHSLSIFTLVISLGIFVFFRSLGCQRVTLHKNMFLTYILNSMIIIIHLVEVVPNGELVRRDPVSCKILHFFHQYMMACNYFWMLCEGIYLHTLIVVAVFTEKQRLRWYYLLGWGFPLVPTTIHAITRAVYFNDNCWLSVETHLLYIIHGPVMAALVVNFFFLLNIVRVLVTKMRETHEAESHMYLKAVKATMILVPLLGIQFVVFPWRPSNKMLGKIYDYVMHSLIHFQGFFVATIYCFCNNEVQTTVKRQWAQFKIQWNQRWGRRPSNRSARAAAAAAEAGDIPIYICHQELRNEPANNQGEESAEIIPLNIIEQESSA
# T1 sequence (looked up) 2: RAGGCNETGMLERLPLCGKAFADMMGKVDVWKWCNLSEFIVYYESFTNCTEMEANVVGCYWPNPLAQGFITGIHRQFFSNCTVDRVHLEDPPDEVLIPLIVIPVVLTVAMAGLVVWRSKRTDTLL
# T2: human calcitonin receptor (human, UniProt P30988 25-474)
# T2 sequence (looked up): T1 sequence (looked up) 1
# B1: N^α1-[2-[2-[2-[[2-[2-[2-[[(4S)-4-carboxy-4-(19-carboxynonadecanoylamino)butanoyl]amino]ethoxy]ethoxy]acetyl]amino]ethoxy]ethoxy]acetyl]-[Arg17,Pro21,Pro27]-h-am … (peptide)
# peptide: KCNTATCATQRLANFLRHSSPNFGAIPSSTNVGSNTY
# modifications: C20 diacid-gGlu-2xOEG on the alpha amino group of the N-terminal residue; disulfide bridge Cys2-Cys7; C-terminal amide
# notes: Synthetic acylated analogue of human amylin; also called compound 24
# B2: N^α1-[(4S)-4-carboxy-4-(19-carboxynonadecanoylamino)butanoyl]-[Arg17,Pro21,Pro27,His34]-h-amylin (peptide)
# peptide: B1 peptide with S34H
# modifications: C20 diacid-gGlu on the alpha amino group of the N-terminal residue; disulfide bridge Cys2-Cys7; C-terminal amide
# notes: Synthetic acylated analogue of human amylin; also called compound 40
# B3: N^α1-[2-[2-[2-[[2-[2-[2-[[(4S)-4-carboxy-4-(19-carboxynonadecanoylamino)butanoyl]amino]ethoxy]ethoxy]acetyl]amino]ethoxy]ethoxy]acetyl]-[Glu14,Arg17,Pro21,Pro27 … (peptide)
# peptide: B1 peptide with N14E
# modifications: C20 diacid-gGlu-2xOEG on the alpha amino group of the N-terminal residue; disulfide bridge Cys2-Cys7; C-terminal amide
# notes: Synthetic acylated analogue of human amylin; also called compound 19
# B4: N^α1-[(4S)-4-carboxy-4-(19-carboxynonadecanoylamino)butanoyl]-[Arg17,Pro21,Pro27,Lys35]-h-amylin (peptide)
# peptide: B1 peptide with N35K
# modifications: C20 diacid-gGlu on the alpha amino group of the N-terminal residue; disulfide bridge Cys2-Cys7; C-terminal amide
# notes: Synthetic acylated analogue of human amylin; also called compound 34
# B5: N^α1-[(4S)-4-carboxy-4-(19-carboxynonadecanoylamino)butanoyl]-[Glu14,Arg17,Pro21,Pro27,Arg35]-h-amylin (peptide)
# peptide: {C20 diacid-γGlu}-KCNTATCATQRLAEFLRHSSPNFGAIPSSTNVGSRTY-NH2
# modifications: disulfide 2-7
# SMILES: CC[C@H](C)[C@H](NC(=O)[C@H](C)NC(=O)CNC(=O)[C@H](Cc1ccccc1)NC(=O)[C@H](CC(N)=O)NC(=O)[C@@H]1CCCN1C(=O)[C@H](CO)NC(=O)[C@H](CO)NC(=O)[C@H](Cc1c[nH]cn1)NC(=O)[C@H](CCCNC(=N)N)NC(=O)[C@H](CC(C)C)NC(=O)[C@H](Cc1ccccc1)NC(=O)[C@H](CCC(=O)O)NC(=O)[C@H](C)NC(=O)[C@H](CC(C)C)NC(=O)[C@H](CCCNC(=N)N)NC(=O)[C@H](CCC(N)=O)NC(=O)[C@@H](NC(=O)[C@H](C)NC(=O)[C@@H]1CSSC[C@H](NC(=O)[C@H](CCCCN)NC(=O)CC[C@H](NC(=O)CCCCCCCCCCCCCCCCCCC(=O)O)C(=O)O)C(=O)N[C@@H](CC(N)=O)C(=O)N[C@@H]([C@@H](C)O)C(=O)N[C@@H](C)C(=O)N[C@@H]([C@@H](C)O)C(=O)N1)[C@@H](C)O)C(=O)N1CCC[C@H]1C(=O)N[C@@H](CO)C(=O)N[C@@H](CO)C(=O)N[C@H](C(=O)N[C@@H](CC(N)=O)C(=O)N[C@H](C(=O)NCC(=O)N[C@@H](CO)C(=O)N[C@@H](CCCNC(=N)N)C(=O)N[C@H](C(=O)N[C@@H](Cc1ccc(O)cc1)C(N)=O)[C@@H](C)O)C(C)C)[C@@H](C)O
# notes: Synthetic acylated analogue of human amylin; also called compound 16
# B6: N^α1-[(4S)-4-carboxy-4-(19-carboxynonadecanoylamino)butanoyl]-[Glu14,Arg17,Pro21,Pro27,Pro31]-h-amylin (peptide)
# peptide: {C20 diacid-γGlu}-KCNTATCATQRLAEFLRHSSPNFGAIPSSTPVGSNTY-NH2
# modifications: disulfide 2-7
# SMILES: CC[C@H](C)[C@H](NC(=O)[C@H](C)NC(=O)CNC(=O)[C@H](Cc1ccccc1)NC(=O)[C@H](CC(N)=O)NC(=O)[C@@H]1CCCN1C(=O)[C@H](CO)NC(=O)[C@H](CO)NC(=O)[C@H](Cc1c[nH]cn1)NC(=O)[C@H](CCCNC(=N)N)NC(=O)[C@H](CC(C)C)NC(=O)[C@H](Cc1ccccc1)NC(=O)[C@H](CCC(=O)O)NC(=O)[C@H](C)NC(=O)[C@H](CC(C)C)NC(=O)[C@H](CCCNC(=N)N)NC(=O)[C@H](CCC(N)=O)NC(=O)[C@@H](NC(=O)[C@H](C)NC(=O)[C@@H]1CSSC[C@H](NC(=O)[C@H](CCCCN)NC(=O)CC[C@H](NC(=O)CCCCCCCCCCCCCCCCCCC(=O)O)C(=O)O)C(=O)N[C@@H](CC(N)=O)C(=O)N[C@@H]([C@@H](C)O)C(=O)N[C@@H](C)C(=O)N[C@@H]([C@@H](C)O)C(=O)N1)[C@@H](C)O)C(=O)N1CCC[C@H]1C(=O)N[C@@H](CO)C(=O)N[C@@H](CO)C(=O)N[C@H](C(=O)N1CCC[C@H]1C(=O)N[C@H](C(=O)NCC(=O)N[C@@H](CO)C(=O)N[C@@H](CC(N)=O)C(=O)N[C@H](C(=O)N[C@@H](Cc1ccc(O)cc1)C(N)=O)[C@@H](C)O)C(C)C)[C@@H](C)O
# notes: Synthetic acylated analogue of human amylin; also called compound 31
# B7: N^α1-[(4S)-4-carboxy-4-(19-carboxynonadecanoylamino)butanoyl]-[His14,Arg17,Pro21,Pro27,Glu35]-h-amylin (peptide)
# peptide: {C20 diacid-γGlu}-KCNTATCATQRLAHFLRHSSPNFGAIPSSTNVGSETY-NH2
# modifications: disulfide 2-7
# SMILES: CC[C@H](C)[C@H](NC(=O)[C@H](C)NC(=O)CNC(=O)[C@H](Cc1ccccc1)NC(=O)[C@H](CC(N)=O)NC(=O)[C@@H]1CCCN1C(=O)[C@H](CO)NC(=O)[C@H](CO)NC(=O)[C@H](Cc1c[nH]cn1)NC(=O)[C@H](CCCNC(=N)N)NC(=O)[C@H](CC(C)C)NC(=O)[C@H](Cc1ccccc1)NC(=O)[C@H](Cc1c[nH]cn1)NC(=O)[C@H](C)NC(=O)[C@H](CC(C)C)NC(=O)[C@H](CCCNC(=N)N)NC(=O)[C@H](CCC(N)=O)NC(=O)[C@@H](NC(=O)[C@H](C)NC(=O)[C@@H]1CSSC[C@H](NC(=O)[C@H](CCCCN)NC(=O)CC[C@H](NC(=O)CCCCCCCCCCCCCCCCCCC(=O)O)C(=O)O)C(=O)N[C@@H](CC(N)=O)C(=O)N[C@@H]([C@@H](C)O)C(=O)N[C@@H](C)C(=O)N[C@@H]([C@@H](C)O)C(=O)N1)[C@@H](C)O)C(=O)N1CCC[C@H]1C(=O)N[C@@H](CO)C(=O)N[C@@H](CO)C(=O)N[C@H](C(=O)N[C@@H](CC(N)=O)C(=O)N[C@H](C(=O)NCC(=O)N[C@@H](CO)C(=O)N[C@@H](CCC(=O)O)C(=O)N[C@H](C(=O)N[C@@H](Cc1ccc(O)cc1)C(N)=O)[C@@H](C)O)C(C)C)[C@@H](C)O
# notes: Synthetic acylated analogue of human amylin; also called compound 30
# B8: N^α1-[(4S)-4-carboxy-4-(19-carboxynonadecanoylamino)butanoyl]-[Arg17,Pro21,Pro27,Glu35]-h-amylin (peptide)
# peptide: B1 peptide with N35E
# modifications: C20 diacid-gGlu on the alpha amino group of the N-terminal residue; disulfide bridge Cys2-Cys7; C-terminal amide
# notes: Synthetic acylated analogue of human amylin; also called compound 23
# B9: N^α1-[(4S)-4-carboxy-4-(19-carboxynonadecanoylamino)butanoyl]-[Glu14,Arg17,Pro21,Pro27]-h-amylin (peptide)
# peptide: B1 peptide with N14E
# modifications: C20 diacid-gGlu on the alpha amino group of the N-terminal residue; disulfide bridge Cys2-Cys7; C-terminal amide
# notes: Synthetic acylated analogue of human amylin; also called compound 9
# B10: N^α1-[(4S)-4-carboxy-4-(19-carboxynonadecanoylamino)butanoyl]-[Arg17,Pro21,Pro27,Pro31,Glu35]-h-amylin (peptide)
# peptide: {C20 diacid-γGlu}-KCNTATCATQRLANFLRHSSPNFGAIPSSTPVGSETY-NH2
# modifications: disulfide 2-7
# SMILES: CC[C@H](C)[C@H](NC(=O)[C@H](C)NC(=O)CNC(=O)[C@H](Cc1ccccc1)NC(=O)[C@H](CC(N)=O)NC(=O)[C@@H]1CCCN1C(=O)[C@H](CO)NC(=O)[C@H](CO)NC(=O)[C@H](Cc1c[nH]cn1)NC(=O)[C@H](CCCNC(=N)N)NC(=O)[C@H](CC(C)C)NC(=O)[C@H](Cc1ccccc1)NC(=O)[C@H](CC(N)=O)NC(=O)[C@H](C)NC(=O)[C@H](CC(C)C)NC(=O)[C@H](CCCNC(=N)N)NC(=O)[C@H](CCC(N)=O)NC(=O)[C@@H](NC(=O)[C@H](C)NC(=O)[C@@H]1CSSC[C@H](NC(=O)[C@H](CCCCN)NC(=O)CC[C@H](NC(=O)CCCCCCCCCCCCCCCCCCC(=O)O)C(=O)O)C(=O)N[C@@H](CC(N)=O)C(=O)N[C@@H]([C@@H](C)O)C(=O)N[C@@H](C)C(=O)N[C@@H]([C@@H](C)O)C(=O)N1)[C@@H](C)O)C(=O)N1CCC[C@H]1C(=O)N[C@@H](CO)C(=O)N[C@@H](CO)C(=O)N[C@H](C(=O)N1CCC[C@H]1C(=O)N[C@H](C(=O)NCC(=O)N[C@@H](CO)C(=O)N[C@@H](CCC(=O)O)C(=O)N[C@H](C(=O)N[C@@H](Cc1ccc(O)cc1)C(N)=O)[C@@H](C)O)C(C)C)[C@@H](C)O
# notes: Synthetic acylated analogue of human amylin; also called compound 28
# B11: N^α1-[(4S)-4-carboxy-4-(19-carboxynonadecanoylamino)butanoyl]-[Arg17,Pro21,Pro27,Arg34]-h-amylin (peptide)
# peptide: B1 peptide with S34R
# modifications: C20 diacid-gGlu on the alpha amino group of the N-terminal residue; disulfide bridge Cys2-Cys7; C-terminal amide
# notes: Synthetic acylated analogue of human amylin; also called compound 39
# B12: N^ε1-[(4S)-4-carboxy-4-[[(4S)-4-carboxy-4-(19-carboxynonadecanoylamino)butanoyl]amino]butanoyl]-[Asp14,Arg17,Pro21,Pro27,Arg35]-h-amylin (peptide)
# peptide: K([γGlu-γGlu-C20 diacid])CNTATCATQRLADFLRHSSPNFGAIPSSTNVGSRTY-NH2
# modifications: disulfide 2-7; N-terminus assumed
# SMILES: CC[C@H](C)[C@H](NC(=O)[C@H](C)NC(=O)CNC(=O)[C@H](Cc1ccccc1)NC(=O)[C@H](CC(N)=O)NC(=O)[C@@H]1CCCN1C(=O)[C@H](CO)NC(=O)[C@H](CO)NC(=O)[C@H](Cc1c[nH]cn1)NC(=O)[C@H](CCCNC(=N)N)NC(=O)[C@H](CC(C)C)NC(=O)[C@H](Cc1ccccc1)NC(=O)[C@H](CC(=O)O)NC(=O)[C@H](C)NC(=O)[C@H](CC(C)C)NC(=O)[C@H](CCCNC(=N)N)NC(=O)[C@H](CCC(N)=O)NC(=O)[C@@H](NC(=O)[C@H](C)NC(=O)[C@@H]1CSSC[C@H](NC(=O)[C@@H](N)CCCCNC(=O)CC[C@H](NC(=O)CC[C@H](NC(=O)CCCCCCCCCCCCCCCCCCC(=O)O)C(=O)O)C(=O)O)C(=O)N[C@@H](CC(N)=O)C(=O)N[C@@H]([C@@H](C)O)C(=O)N[C@@H](C)C(=O)N[C@@H]([C@@H](C)O)C(=O)N1)[C@@H](C)O)C(=O)N1CCC[C@H]1C(=O)N[C@@H](CO)C(=O)N[C@@H](CO)C(=O)N[C@H](C(=O)N[C@@H](CC(N)=O)C(=O)N[C@H](C(=O)NCC(=O)N[C@@H](CO)C(=O)N[C@@H](CCCNC(=N)N)C(=O)N[C@H](C(=O)N[C@@H](Cc1ccc(O)cc1)C(N)=O)[C@@H](C)O)C(C)C)[C@@H](C)O
# notes: Synthetic acylated analogue of human amylin; also called compound 52
# Biological target: T1, human amylin receptor (amylin 3(a) …)
# Test: cell-based or functional assay
Ratio hCT/hAmylin funct. [ratio],hAmylin-R funct. EC50 [nM],Binder
23.1,0.433,B1
16.4,0.164,B2
17.4,0.307,B3
8.4,0.313,B4
6.1,0.363,B5
6.4,0.112,B6
12.6,0.134,B7
8.9,0.34,B8
7.4,0.175,B9
9.2,0.22,B10
11.6,0.217,B11

# Biological target: T2, human calcitonin receptor
# Test: cell-based or functional assay
row,hCTR funct. EC50 [nM],Binder
1,10,B1
2,2.68,B2
3,5.32,B3
4,2.62,B4
5,2.21,B5
6,0.717,B6
7,1.68,B7
8,3.02,B8
9,1.29,B9
10,2.03,B10
11,14.1,B12
12,2.52,B11
